# From US20240247080A1, “GLP1/GIP/NPY2 RECEPTOR TRIPLE AGONISTS” (Boehringer Ingelheim International GmbH, priority 2022, published 2024)
# Starred links: 1 amine or outer side, 2 acyl side, 3 side chain; linkers in the order of their positions; H or OH if unused. Non-standard residues stand in square brackets, D forms with d. Groups on a side chain read outwards from the residue. No end group written: not given here. *: point of attachment. C20 diacid = O=C(O)CCCCCCCCCCCCCCCCCCC(=O)*; C18 diacid = O=C(O)CCCCCCCCCCCCCCCCC(=O)*; γGlu = O=C(O)[C@H](CCC(=O)[*:2])N[*:1]; εLys = N[C@@H](CCCCN[*:1])C(=O)[*:2]; AEEA = NCCOCCOCC(=O)O; Aib = CC(C)(N)C(=O)O
# T1: GIP receptor (human (printed as hGIPR), UniProt P48546 22-466)
# T1 sequence (looked up): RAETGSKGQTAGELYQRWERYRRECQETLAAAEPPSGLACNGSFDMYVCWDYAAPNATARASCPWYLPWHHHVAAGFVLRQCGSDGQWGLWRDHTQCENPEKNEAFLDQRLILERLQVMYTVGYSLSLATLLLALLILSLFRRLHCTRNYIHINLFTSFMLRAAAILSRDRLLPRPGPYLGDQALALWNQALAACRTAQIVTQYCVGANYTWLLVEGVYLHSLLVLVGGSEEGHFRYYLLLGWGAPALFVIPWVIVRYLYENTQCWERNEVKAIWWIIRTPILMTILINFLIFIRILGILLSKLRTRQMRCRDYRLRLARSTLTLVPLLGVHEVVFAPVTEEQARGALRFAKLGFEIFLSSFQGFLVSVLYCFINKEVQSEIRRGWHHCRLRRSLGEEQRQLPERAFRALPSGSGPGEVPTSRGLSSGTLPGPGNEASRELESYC
# T2: NPY2 receptor (human (printed as hNPY2R), UniProt P49146 1-381)
# T2 sequence (looked up): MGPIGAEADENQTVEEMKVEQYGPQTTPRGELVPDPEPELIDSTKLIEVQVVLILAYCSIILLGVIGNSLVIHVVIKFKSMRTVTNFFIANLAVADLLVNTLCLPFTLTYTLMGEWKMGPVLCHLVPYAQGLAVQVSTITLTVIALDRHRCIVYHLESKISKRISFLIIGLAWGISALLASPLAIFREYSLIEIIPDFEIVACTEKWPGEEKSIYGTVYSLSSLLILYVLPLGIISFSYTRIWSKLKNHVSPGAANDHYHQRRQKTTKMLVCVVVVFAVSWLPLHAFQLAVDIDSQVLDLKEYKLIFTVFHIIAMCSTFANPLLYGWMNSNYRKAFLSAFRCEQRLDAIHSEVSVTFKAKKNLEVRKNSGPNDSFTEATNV
# Assays:
# Assay in all cases: cell-based or functional assay
# [1] = target: GLP-1 receptor (human (printed as hGLP1R), UniProt P43220 24-463)
# [2] = target: T1, GIP receptor
# [3] = target: T2, NPY2 receptor
Binder,EC50 hGLP1R 0.5% hP (CreLuc) [1],EC50 hGLP1R 100% hP (CreLuc) [1],EC50 hGIPR 0.5% hP (CreLuc) [2],EC50 hGIPR 100% hP (CreLuc) [2],EC50 hNPY2R 0.5% hP (CreLuc) [3],EC50 hNPY2R 100% hP (CreLuc) [3]
Y[Aib]EGTFTSDYSI[Aib]LEKQAQ[Aib]EFVQWLIK([γGlu-γGlu-γGlu-γGlu-C18 diacid])GGPSEGASLRHYYNWLTRQRY-NH2 (also: TFA salt) [Compound 202],0.21 nM,10.4 nM,0.26 nM,1.81 nM,12.9 nM,64.5 nM
Y[Aib]EGTFTSDYSI[Aib]LEKQAQ[Aib]AFVEWLIKGGPSSGASLRHYYNW[dD]TRQRY-NH2 (not fully specified (residue 28); also: TFA salt) [Compound 204],0.12 nM,3.14 nM,0.35 nM,2.88 nM,> 99.9 nM,> 999 nM
Y[Aib]EGTFTSDYSI[Aib]LEKQAQ[Aib]EFVEWLIK([AEEA-AEEA-γGlu-γGlu-γGlu-γGlu-C20 diacid])GGPSSGASLRHYYNWLTRQRY-NH2 (also: TFA salt) [Compound 205],0.44 nM,12.3 nM,0.33 nM,1.87 nM,10.6 nM,37.7 nM
Y[Aib]EGTFTSDYSI[Aib]LEKQAE[Aib]AFVQWLIK([εLys-γGlu-γGlu-γGlu-γGlu-γGlu-C20 diacid])GGPSEGASLRHYYNWLTRQRY-NH2 (also: TFA salt) [Compound 200],0.48 nM,25.8 nM,0.37 nM,3.56 nM,12.1 nM,64.3 nM
Y[Aib]EGTFTSDYSI[Aib]LEKQAQ[Aib]EFVEWLIKGGPSSGASLRHYYNWLTRQRY-NH2 (not fully specified (residue 28); also: TFA salt) [Compound 201],0.28 nM,10.4 nM,0.49 nM,1.03 nM,16.3 nM,31 nM
Y[Aib]EGTFTSDYSI[Aib]LEKQAQ[Aib]AFVEWLIKGGPEEPASLRHYYNWLTRQRY-NH2 (not fully specified (residue 28); also: TFA salt) [Compound 206],0.43 nM,17.2 nM,0.25 nM,2.61 nM,13.4 nM,61.7 nM
Y[Aib]EGTFTSDYSI[Aib]LEKQAQ[Aib]EFVQWLIKGGPSEGASLRHYYNWLTRQRY-NH2 (not fully specified (residue 28); also: TFA salt) [Compound 207],0.36 nM,12.7 nM,0.63 nM,1.66 nM,11 nM,50.3 nM
"YXEGTFTSDYSIXLEKQAQXAFVEWLIKGGPSSGASLRHYYNWLTRXRY (Aib at 2, 13, 20; bHGln (beta-homo-L-glutamine) at 47; K28 side chain carries C20DA-gGlu-gGlu-gGlu-gGlu-gGlu-gGlu-eLys; C-terminal amide) [Compound 208]",0.11 nM,1.51 nM,0.07 nM,0.81 nM,> 100 nM,> 1000 nM
"YXEGTFTSDYSIXLEKQAQXAFVEWLIKGGPSSGASLLHYYNWLTRQRY (Aib at 2, 13, 20; K28 side chain carries C20DA-gGlu-gGlu-gGlu-gGlu-gGlu-gGlu-eLys; C-terminal amide) [Compound 210]",0.19 nM,3.39 nM,0.28 nM,2.3 nM,54.1 nM,430 nM
"YXEGTFTSDYSIXLEKQAQDAFVEWLIKGGPSSGASLRHYYNWLTRQRY (Aib at 2, 13; D-Asp at 20; K28 side chain carries C20DA-gGlu-gGlu-gGlu-gGlu-gGlu-gGlu-eLys; C-terminal amide) [Compound 211]",0.74 nM,25.9 nM,0.85 nM,9.79 nM,11.2 nM,56.3 nM
"YXEGTFTSDYSIXLELQAQXAFVEWLIKGGPSSGASLRHYYNWLTRQRY (Aib at 2, 13, 20; K28 side chain carries C20DA-gGlu-gGlu-gGlu-gGlu-gGlu-gGlu-eLys; C-terminal amide) [Compound 209]",0.48 nM,16.7 nM,0.81 nM,8.57 nM,35.2 nM,171 nM
Y[Aib]EGTFTSDYSI[Aib]LEKQAQ[Aib]AFVEWLIKGGPSYYASLRHYYNWLTRQRY-NH2 (not fully specified (residue 28); also: TFA salt) [Compound 203],0.33 nM,27 nM,0.5 nM,12.4 nM,9.07 nM,54.1 nM

# Results, then the binder that gave them:
EC50 hGLP1R 0.5% hP (CreLuc) [1],EC50 hGLP1R 100% hP (CreLuc) [1],EC50 hGIPR 0.5% hP (CreLuc) [2],EC50 hGIPR 100% hP (CreLuc) [2],EC50 hNPY2R 0.5% hP (CreLuc) [3],EC50 hNPY2R 100% hP (CreLuc) [3],Binder
0.11 nM,3.69 nM,0.24 nM,1.83 nM,13.5 nM,122 nM,Y[Aib]EGTFTSDYSI[Aib]LEKQAQ[Aib]AFVEWLIKGGPSSGVSLRHYYNWLTRQRY-NH2 (not fully specified (residue 28); also: TFA salt) [Compound 212]
0.61 nM,16.1 nM,0.46 nM,2.43 nM,12.8 nM,43.4 nM,Y[Aib]EGTFTSDYSI[Aib]LEKQAE[Aib]AFVQWLIK([AEEA-AEEA-γGlu-γGlu-γGlu-γGlu-C20 diacid])GGPSEGASLRHYYNWLTRQRY-NH2 (also: TFA salt) [Compound 219]
0.19 nM,2.65 nM,0.23 nM,1.81 nM,> 99.9 nM,283 nM,"YXEGTFTSDYSIXLEKQAQXAFVEWLIKGGPSSGASLRHYYNWLTRQRY (Aib at 2, 13, 20; D-Tyr at 49; K28 side chain carries C20DA-gGlu-gGlu-gGlu-gGlu-gGlu-gGlu-eLys; C-terminal amide) [Compound 214]"
0.16 nM,3.3 nM,0.36 nM,2.35 nM,87.4 nM,623 nM,"YXEGTFTSDYSIXLEKQAQXAFVEWLIKGGPSSGASLRHYYNXLTRQRY (Aib at 2, 13, 20, 43; K28 side chain carries C20DA-gGlu-gGlu-gGlu-gGlu-gGlu-gGlu-eLys; C-terminal amide) [Compound 218]"
0.16 nM,3.03 nM,0.34 nM,1.53 nM,> 100 nM,> 1000 nM,"YXEGTFTSDYSIXLEKQAQXAFVEWLIKGGPSSGASLRHYYXWLTRQRY (Aib at 2, 13, 20, 42; K28 side chain carries C20DA-gGlu-gGlu-gGlu-gGlu-gGlu-gGlu-eLys; C-terminal amide) [Compound 213]"
0.17 nM,5.28 nM,0.29 nM,1.83 nM,10.2 nM,42.6 nM,"YXEGTFTSDYSIXLEKQAQXAFVQWLIKGGPSEGASLRHYYNWLTRQRY (Aib at 2, 13, 20; K28 side chain carries C20DA-gGlu-gGlu-gGlu-gGlu-gGlu-gGlu-eLys; C-terminal amide) [Compound 220]"
0.31 nM,10.6 nM,9.45 nM,64.2 nM,2.81 nM,16.8 nM,"YXEGTFTSDYSIXLEKQAQRAFVEWLIKGGPSSGASLRHYYNWLTRQRY (Aib at 2, 13; D-Arg at 20; K28 side chain carries C20DA-gGlu-gGlu-gGlu-gGlu-gGlu-gGlu-eLys; C-terminal amide) [Compound 216]"
1.34 nM,17.2 nM,0.74 nM,8.85 nM,18.6 nM,35.4 nM,"YXEGTFTSDYSIXLEKQAQXAFVEWLIKGGPSEYVSLRHYYNWLTRQRY (Aib at 2, 13, 20; K28 side chain carries C20DA-gGlu-gGlu-gGlu-gGlu-gGlu-gGlu-eLys; C-terminal amide) [Compound 217]"
0.66 nM,14 nM,0.5 nM,2.94 nM,12.4 nM,22.5 nM,"YXEGTFTSDYSIXLEKQAQXEFVEWLIKGGPSSGASLRHYYNWLTRQRY (Aib at 2, 13, 20; K28 side chain carries C20DA-gGlu-gGlu-gGlu-gGlu-gGlu-gGlu-eLys; C-terminal amide) [Compound 215]"
